*1 amine or outer side, *2 acyl side, *3 side chain or, on linkers, in order; H or OH if unused. Side-chain parts run from the residue outwards. [ ]: non-standard residue; d: D form. The star is where a group is joined. C18 diacid = O=C(O)CCCCCCCCCCCCCCCCC(=O)*; γGlu = O=C(O)[C@H](CCC(=O)[*:2])N[*:1]; C14 diacid = O=C(O)CCCCCCCCCCCCC(=O)*; Stearoyl = CCCCCCCCCCCCCCCCCC(=O)*; AEEA = NCCOCCOCC(=O)O; Aib = CC(C)(N)C(=O)O
B1: Compound 4 (peptide)
peptide: H-H[Aib]QGTFTSDK([AEEA-AEEA-γGlu-Stearoyl])SKYLD[Aib]RRAQDFVQWLMNTKEYEK([Lys-C18 diacid])EYE-OH
B2: Compound 7 (peptide)
peptide: H-H[Aib]QGTFTSDK([AEEA-AEEA-γGlu-Stearoyl])SKYLD[Aib]RRAQDFVQWLMNTKEYEK(17‑aminocarboxy‑1‑oxoheptadecyl)EYE-OH
B3: Compound 3 (peptide)
peptide: H-H[Aib]QGTFTSDK([AEEA-AEEA-γGlu-Stearoyl])SKYLD[Aib]RRAQDFVQWLMNTKEYEK(C18 diacid)EYE-OH
SMILES: CCCCCCCCCCCCCCCCCC(=O)N[C@@H](CCC(=O)NCCOCCOCC(=O)NCCOCCOCC(=O)NCCCC[C@H](NC(=O)[C@H](CC(=O)O)NC(=O)[C@H](CO)NC(=O)[C@@H](NC(=O)[C@H](Cc1ccccc1)NC(=O)[C@@H](NC(=O)CNC(=O)[C@H](CCC(N)=O)NC(=O)C(C)(C)NC(=O)[C@@H](N)Cc1c[nH]cn1)[C@@H](C)O)[C@@H](C)O)C(=O)N[C@@H](CO)C(=O)N[C@@H](CCCCN)C(=O)N[C@@H](Cc1ccc(O)cc1)C(=O)N[C@@H](CC(C)C)C(=O)N[C@@H](CC(=O)O)C(=O)NC(C)(C)C(=O)N[C@@H](CCCNC(=N)N)C(=O)N[C@@H](CCCNC(=N)N)C(=O)N[C@@H](C)C(=O)N[C@@H](CCC(N)=O)C(=O)N[C@@H](CC(=O)O)C(=O)N[C@@H](Cc1ccccc1)C(=O)N[C@H](C(=O)N[C@@H](CCC(N)=O)C(=O)N[C@@H](Cc1c[nH]c2ccccc12)C(=O)N[C@@H](CC(C)C)C(=O)N[C@@H](CCSC)C(=O)N[C@@H](CC(N)=O)C(=O)N[C@H](C(=O)N[C@@H](CCCCN)C(=O)N[C@@H](CCC(=O)O)C(=O)N[C@@H](Cc1ccc(O)cc1)C(=O)N[C@@H](CCC(=O)O)C(=O)N[C@@H](CCCCNC(=O)CCCCCCCCCCCCCCCCC(=O)O)C(=O)N[C@@H](CCC(=O)O)C(=O)N[C@@H](Cc1ccc(O)cc1)C(=O)N[C@@H](CCC(=O)O)C(=O)O)[C@@H](C)O)C(C)C)C(=O)O
B4: Compound 5 (peptide)
peptide: H-H[Aib]QGTFTSDK([AEEA-AEEA-γGlu-Stearoyl])SKYLD[Aib]RRAQDFVQWLMNTKEYEK([AEEA-AEEA-AEEA-γGlu-C18 diacid])EYE-OH
SMILES: CCCCCCCCCCCCCCCCCC(=O)N[C@@H](CCC(=O)NCCOCCOCC(=O)NCCOCCOCC(=O)NCCCC[C@H](NC(=O)[C@H](CC(=O)O)NC(=O)[C@H](CO)NC(=O)[C@@H](NC(=O)[C@H](Cc1ccccc1)NC(=O)[C@@H](NC(=O)CNC(=O)[C@H](CCC(N)=O)NC(=O)C(C)(C)NC(=O)[C@@H](N)Cc1c[nH]cn1)[C@@H](C)O)[C@@H](C)O)C(=O)N[C@@H](CO)C(=O)N[C@@H](CCCCN)C(=O)N[C@@H](Cc1ccc(O)cc1)C(=O)N[C@@H](CC(C)C)C(=O)N[C@@H](CC(=O)O)C(=O)NC(C)(C)C(=O)N[C@@H](CCCNC(=N)N)C(=O)N[C@@H](CCCNC(=N)N)C(=O)N[C@@H](C)C(=O)N[C@@H](CCC(N)=O)C(=O)N[C@@H](CC(=O)O)C(=O)N[C@@H](Cc1ccccc1)C(=O)N[C@H](C(=O)N[C@@H](CCC(N)=O)C(=O)N[C@@H](Cc1c[nH]c2ccccc12)C(=O)N[C@@H](CC(C)C)C(=O)N[C@@H](CCSC)C(=O)N[C@@H](CC(N)=O)C(=O)N[C@H](C(=O)N[C@@H](CCCCN)C(=O)N[C@@H](CCC(=O)O)C(=O)N[C@@H](Cc1ccc(O)cc1)C(=O)N[C@@H](CCC(=O)O)C(=O)N[C@@H](CCCCNC(=O)COCCOCCNC(=O)COCCOCCNC(=O)COCCOCCNC(=O)CC[C@H](NC(=O)CCCCCCCCCCCCCCCCC(=O)O)C(=O)O)C(=O)N[C@@H](CCC(=O)O)C(=O)N[C@@H](Cc1ccc(O)cc1)C(=O)N[C@@H](CCC(=O)O)C(=O)O)[C@@H](C)O)C(C)C)C(=O)O
B5: Comparative Example Compound 8 (peptide)
peptide: H-H[Aib]QGTFTSDK([AEEA-AEEA-γGlu-Stearoyl])SKYLD[Aib]RRAQDFVQWLMNTK-OH
SMILES: CCCCCCCCCCCCCCCCCC(=O)N[C@@H](CCC(=O)NCCOCCOCC(=O)NCCOCCOCC(=O)NCCCC[C@H](NC(=O)[C@H](CC(=O)O)NC(=O)[C@H](CO)NC(=O)[C@@H](NC(=O)[C@H](Cc1ccccc1)NC(=O)[C@@H](NC(=O)CNC(=O)[C@H](CCC(N)=O)NC(=O)C(C)(C)NC(=O)[C@@H](N)Cc1c[nH]cn1)[C@@H](C)O)[C@@H](C)O)C(=O)N[C@@H](CO)C(=O)N[C@@H](CCCCN)C(=O)N[C@@H](Cc1ccc(O)cc1)C(=O)N[C@@H](CC(C)C)C(=O)N[C@@H](CC(=O)O)C(=O)NC(C)(C)C(=O)N[C@@H](CCCNC(=N)N)C(=O)N[C@@H](CCCNC(=N)N)C(=O)N[C@@H](C)C(=O)N[C@@H](CCC(N)=O)C(=O)N[C@@H](CC(=O)O)C(=O)N[C@@H](Cc1ccccc1)C(=O)N[C@H](C(=O)N[C@@H](CCC(N)=O)C(=O)N[C@@H](Cc1c[nH]c2ccccc12)C(=O)N[C@@H](CC(C)C)C(=O)N[C@@H](CCSC)C(=O)N[C@@H](CC(N)=O)C(=O)N[C@H](C(=O)N[C@@H](CCCCN)C(=O)O)[C@@H](C)O)C(C)C)C(=O)O
B6: Compound 1 (peptide)
peptide: H-H[Aib]QGTFTSDK([AEEA-AEEA-γGlu-Stearoyl])SKYLD[Aib]RRAQDFVQWLMNTKEYEK(C14 diacid)EYE-OH
SMILES: CCCCCCCCCCCCCCCCCC(=O)N[C@@H](CCC(=O)NCCOCCOCC(=O)NCCOCCOCC(=O)NCCCC[C@H](NC(=O)[C@H](CC(=O)O)NC(=O)[C@H](CO)NC(=O)[C@@H](NC(=O)[C@H](Cc1ccccc1)NC(=O)[C@@H](NC(=O)CNC(=O)[C@H](CCC(N)=O)NC(=O)C(C)(C)NC(=O)[C@@H](N)Cc1c[nH]cn1)[C@@H](C)O)[C@@H](C)O)C(=O)N[C@@H](CO)C(=O)N[C@@H](CCCCN)C(=O)N[C@@H](Cc1ccc(O)cc1)C(=O)N[C@@H](CC(C)C)C(=O)N[C@@H](CC(=O)O)C(=O)NC(C)(C)C(=O)N[C@@H](CCCNC(=N)N)C(=O)N[C@@H](CCCNC(=N)N)C(=O)N[C@@H](C)C(=O)N[C@@H](CCC(N)=O)C(=O)N[C@@H](CC(=O)O)C(=O)N[C@@H](Cc1ccccc1)C(=O)N[C@H](C(=O)N[C@@H](CCC(N)=O)C(=O)N[C@@H](Cc1c[nH]c2ccccc12)C(=O)N[C@@H](CC(C)C)C(=O)N[C@@H](CCSC)C(=O)N[C@@H](CC(N)=O)C(=O)N[C@H](C(=O)N[C@@H](CCCCN)C(=O)N[C@@H](CCC(=O)O)C(=O)N[C@@H](Cc1ccc(O)cc1)C(=O)N[C@@H](CCC(=O)O)C(=O)N[C@@H](CCCCNC(=O)CCCCCCCCCCCCC(=O)O)C(=O)N[C@@H](CCC(=O)O)C(=O)N[C@@H](Cc1ccc(O)cc1)C(=O)N[C@@H](CCC(=O)O)C(=O)O)[C@@H](C)O)C(C)C)C(=O)O
B7: Compound 6 (peptide)
peptide: H-H[Aib]QGTFTSDK([AEEA-AEEA-γGlu-Stearoyl])SKYLD[Aib]RRAQDFVQWLMNTKEYEK([Lys-AEEA-AEEA-AEEA-γGlu-C18 diacid])EYE-OH

Legend:
in vivo = settings: cynomolgus monkey, sc
Text: Cynomolgus monkeys were used to evaluate the pharmacokinetics in monkeys of the acylated oxyntomodulin peptide analogs according to the present invention.

GLP-1 receptor = GLP-1 receptor (Homo sapiens, UniProt P43220); assay: Human GLP-1 receptor activation assay (CRE-luciferase); assay type: cell-based; set-up: host or cells: CHO-K1
Protocol: (§1) Then, the resulting increased luciferase activity was evaluated as a measurement of the effect on each receptor activation.
(§2) For positive control, endogenous ligand GLP-1 or glucagon was used for respective evaluation. The above-mentioned acylated oxyntomodulin peptide analogs of Comparative Example 8-12 were synthesized and used as comparative examples.
(§3) After 3 hours of transfection, medium was exchanged to Alpha Minimal Essential Medium (α-MEM) comprising 10% fetal bovine serum (FBS). Next day, the medium was exchanged to α-MEM comprising the acylated oxyntomodulin peptide analog of the present invention and 0.1% bovine serum albumin (BSA). After 6 hours, dual luciferase assay reagent (Promega) was added in the same amount as the medium in which the cells were submerged, and firefly luciferase and Renilla luciferase activities were successively measured. Firefly luciferase activity values were corrected against Renilla luciferase activity to yield transfection efficiency.

glucagon receptor = glucagon receptor (Homo sapiens, UniProt P47871); assay: Human glucagon receptor activation assay (CRE-luciferase); assay type: cell-based; set-up: host or cells: CHO-K1; settings: CHO-K1 cells transiently transfected
Protocol: as §1, §2, §3

Human glucagon receptor = Human glucagon receptor (human, UniProt P47871); assay: cell-based or functional assay
Human GLP-1 receptor = Human GLP-1 receptor (human, UniProt P43220); assay: cell-based or functional assay

Chain of glucagon receptor (P47871 26-477): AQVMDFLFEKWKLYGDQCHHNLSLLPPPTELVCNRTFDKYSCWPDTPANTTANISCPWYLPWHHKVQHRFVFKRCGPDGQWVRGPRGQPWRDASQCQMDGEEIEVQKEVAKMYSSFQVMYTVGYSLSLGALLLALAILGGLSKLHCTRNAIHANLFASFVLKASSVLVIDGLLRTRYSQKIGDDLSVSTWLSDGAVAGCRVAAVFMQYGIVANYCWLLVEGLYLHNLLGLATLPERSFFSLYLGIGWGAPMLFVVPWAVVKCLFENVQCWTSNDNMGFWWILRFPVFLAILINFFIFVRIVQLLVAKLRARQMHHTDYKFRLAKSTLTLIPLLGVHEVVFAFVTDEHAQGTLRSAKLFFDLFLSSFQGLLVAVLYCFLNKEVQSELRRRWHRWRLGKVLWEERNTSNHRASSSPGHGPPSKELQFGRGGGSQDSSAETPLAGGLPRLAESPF
Chain of GLP-1 receptor (P43220 24-463): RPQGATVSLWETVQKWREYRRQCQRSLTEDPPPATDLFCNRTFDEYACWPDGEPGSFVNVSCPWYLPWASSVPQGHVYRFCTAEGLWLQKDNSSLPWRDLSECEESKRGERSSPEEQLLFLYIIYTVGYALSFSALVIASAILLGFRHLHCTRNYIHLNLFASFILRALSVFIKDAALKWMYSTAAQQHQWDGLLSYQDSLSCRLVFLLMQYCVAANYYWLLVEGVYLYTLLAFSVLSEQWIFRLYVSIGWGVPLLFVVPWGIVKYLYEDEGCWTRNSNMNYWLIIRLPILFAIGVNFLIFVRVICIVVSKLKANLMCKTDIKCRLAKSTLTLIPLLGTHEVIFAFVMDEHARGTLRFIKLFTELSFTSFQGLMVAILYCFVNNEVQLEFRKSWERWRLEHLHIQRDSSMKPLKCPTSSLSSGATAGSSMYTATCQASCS

| Molecule | EC50 (Human glucagon receptor) | Maximum activation (% vs GCG) (Human glucagon receptor) | Maximum activation (% vs GLP-1) (Human GLP-1 receptor) | EC50 (Human GLP-1 receptor) | further results |
| --- | --- | --- | --- | --- | --- |
| CCCCCCCCCCCCCCCCCC(=O)N[C@@H](CCC(=O)NCCOCCOCC(=O)NCCOCCOCC(=O)NCCCC[C@H](NC(=O)[C@H](CC(=O)O)NC(=O)[C@H](CO)NC(=O)[C@@H](NC(=O)[C@H](Cc1ccccc1)NC(=O)[C@@H](NC(=O)CNC(=O)[C@H](CCC(N)=O)NC(=O)C(C)(C)NC(=O)[C@@H](N)Cc1c[nH]cn1)[C@@H](C)O)[C@@H](C)O)C(=O)N[C@@H](CO)C(=O)N[C@@H](CCCCN)C(=O)N[C@@H](Cc1ccc(O)cc1)C(=O)N[C@@H](CC(C)C)C(=O)N[C@@H](CC(=O)O)C(=O)NC(C)(C)C(=O)N[C@@H](CCCNC(=N)N)C(=O)N[C@@H](CCCNC(=N)N)C(=O)N[C@@H](C)C(=O)N[C@@H](CCC(N)=O)C(=O)N[C@@H](CC(=O)O)C(=O)N[C@@H](Cc1ccccc1)C(=O)N[C@H](C(=O)N[C@@H](CCC(N)=O)C(=O)N[C@@H](Cc1c[nH]c2ccccc12)C(=O)N[C@@H](CC(C)C)C(=O)N[C@@H](CCSC)C(=O)N[C@@H](CC(N)=O)C(=O)N[C@H](C(=O)N[C@@H](CCCCN)C(=O)N[C@@H](CCC(=O)O)C(=O)N[C@@H](Cc1ccc(O)cc1)C(=O)N[C@@H](CCC(=O)O)C(=O)N[C@@H](CCCCNC(=O)[C@@H](N)CCCCNC(=O)CCCCCCCCCCCCCCCCC(=O)O)C(=O)N[C@@H](CCC(=O)O)C(=O)N[C@@H](Cc1ccc(O)cc1)C(=O)N[C@@H](CCC(=O)O)C(=O)O)[C@@H](C)O)C(C)C)C(=O)O [Compound 4] |  |  |  |  | half-life (in vivo; Monkey PK (S.C. half-life)): 18 to 24 h; half-life (in vivo; monkey PK half-life): 12 to 24 h; Emax (GLP-1 receptor; CHO-K1, 6 h, read-out: GLP-1 receptor Maximum activation (% vs GLP-1)): 87.9%; EC50 (GLP-1 receptor; CHO-K1 cells transiently transfected, luciferase, 6 hours, 0.1% BSA): 0.1 to 1 nM; Emax (glucagon receptor; 6 h, relative to glucagon, read-out: GCG receptor Maximum activation (% vs GCG)): 95.4%; EC50 (glucagon receptor; 6 hours, 0.1% BSA, read-out: GCG receptor EC50): ≥ 1 nM |
| B1 | ≥ 1 nM | 95.4% | 87.9% |  |  |
| B2 | < 0.1 nM | 100% | 90.8% | < 0.1 nM |  |
| B3 |  | 98.3% | 98.3% |  |  |
| B4 |  | 99.4% | 93.6% |  |  |
| B5 | < 0.1 nM | 103% | 99.3% | < 0.1 nM |  |
| B6 | < 0.1 nM | 107% | 102% | < 0.1 nM |  |
| B7 |  | 89.1% | 83.8% |  |  |
